In patent US20220324957A1 (OPSIDIO, published 2022):
Where a chain is given by its changes, count along the chain named.

B1: murine 5H10 antibody (antibody, V domains shown)
VH: QVQLQQSGAELVRPGSSVKISCKSSGYAFSSYWMNWVKQRPGQGLEWIGQIYPGDGDTHYNGKFKGKATLTADKSSSTAYMQLSRLTSEDSAVYFCSSSNWVGSYWGQGTLVTVSA
VL: not shown
notes: Mouse hybridoma monoclonal with a kappa light chain; It was conjugated to a fluorescent marker for flow cytometry and to pHrodo red for the internalisation assay; also called OpSCF; m5H10
B2: 5H10 VH0/VK0 (chimeric) (antibody, V domains shown)
VH: B1 VH
VL: not shown
notes: also called chimeric 5H10
B3: humanized 5H10 VH4/VK2 (antibody, human IgG4, V domains shown)
VH: QVQLVQSGAEVKKPGSSVKVSCKSSGYAFSSYWMNWVRQRPGQGLEWIGQIYPGDGDTHYNGKFKGRVTITADKSTSTAYMELSSLRSEDTAVYFCSSSNWVGSYWGQGTLVTVSS
VL: DVVMTQSPLSLPVTLGQPASISCKSSQSLLESDGKTYLNWLQQRPGQSPRRLIYLVSRLDSGVPDRFTGSGSGTDFTLKISRVEAEDVGVYYCWQGTHLPQTFGGGTKVEIK
notes: Only variable domains are tied to the name; Humanized from the chimeric antibody, which has a human IgG4 backbone and a kappa light chain
B4: humanized 5H10 VH2/VK3 (antibody, human IgG4, V domains shown)
VH: B3 VH with V20I, R38K, R67K, V68A, I70L
VL: B3 VL with T68S
notes: as for B3
B5: humanized 5H10 VH3/VK2 (antibody, human IgG4, V domains shown)
VH: B3 VH with R67K, V68A, I70L
VL: B3 VL
notes: as for B3
B6: humanized 5H10 VH3/VK3 (antibody, human IgG4, V domains shown)
VH: B3 VH with R67K, V68A, I70L
VL: B3 VL with T68S
notes: as for B3
B7: humanized 5H10 VH1/VK3 (antibody, human IgG4, V domains shown)
VH: B1 VH with Q5V, V12K, R13K, S76T, Q82E, R85S, A116S
VL: B3 VL with T68S
notes: as for B3
B8: humanized 5H10 VH4/VK3 (antibody, human IgG4, V domains shown)
VH: B3 VH
VL: B3 VL with T68S
notes: as for B3

target: T1, human stem cell factor isoform SCF248 (hSCF248) (human, UniProt P21583 26-273); test: flow cytometry, directly labelled antibody on Sl/Sl4 hSCF248 cells
T1 construct: also called soluble SCF
T1 sequence (P21583 26-273 limits assumed): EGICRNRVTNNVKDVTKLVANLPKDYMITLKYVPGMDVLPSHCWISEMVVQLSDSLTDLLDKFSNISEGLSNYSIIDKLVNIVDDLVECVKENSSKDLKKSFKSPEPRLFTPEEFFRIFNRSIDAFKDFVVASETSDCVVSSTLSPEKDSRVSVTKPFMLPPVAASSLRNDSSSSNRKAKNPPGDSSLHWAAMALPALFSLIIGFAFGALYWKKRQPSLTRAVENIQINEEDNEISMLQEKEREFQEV
Protocol: Binding of the labeled antibody to the cells was assessed by flow cytometry.

Binding result, binds:
B1

target: T1, human stem cell factor isoform SCF248 …; test: binding score on Sl/Sl4 hSCF248 cells

Binding result, binds:
B2
B3
B4
B5
B6
B7
B8
